This passage reports protein stability index results from the supplement of paper PMC10567573.

Sequences and labels used below:
B1: RHOBTB3 (parent)
chain: QLQSMPSRELASMNLDIVDLLKKA
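Further: lentivirally expressed fusions sorted by FACS into six bins by GFP to DsRed ratio, PSI derived from sequencing read proportions per bin multiplied by bin number.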

In this series the parent is B1. The series can be described thus: protein stability index of a GFP-peptide fusion (GPS, HEK-293T) (PSI 1-6); higher = more stable. The following applies: c terminus: a fixed tail appended.
As for QLQSMPSRELASMALDIVDLLKKA [N14A], the protein stability index is 2.87. On to QLQSMPSRELASMWLDIVDLLKKA [N14W], for which the protein stability index was found to be 2.37. Take QLQSMPSRELASMKLDIVDLLKKA [N14K]: the protein stability index was determined as 3.75.

Turning to QLQSMPSRELASMFLDIVDLLKKA [N14F], the protein stability index was 1.79.

Take QLQSMPSRELASMLLDIVDLLKKA [N14L]: the protein stability index turned out to be 2.6. As to QLQSMPSRELASMSLDIVDLLKKA [N14S], the protein stability index is 3.31. The same measure for QLQSMPSRELASMQLDIVDLLKKA [N14Q]: 3.3. As for QLQSMPSRELASMTLDIVDLLKKA [N14T], the protein stability index was determined as 3.27.

For the variant QLQSMPSRELASMGLDIVDLLKKA [N14G], the protein stability index came to 3.68. On to QLQSMPSRELASMVLDIVDLLKKA [N14V], for which the protein stability index came to 1.9.

In the case of QLQSMPSRELASMILDIVDLLKKA [N14I], the protein stability index stood at 2.61. Take QLQSMPSRELASMMLDIVDLLKKA [N14M]: the protein stability index was 2.63.

Turning to QLQSMPSRELASMELDIVDLLKKA [N14E], the protein stability index came out at 3.62.

Regarding QLQSMPSRELASMDLDIVDLLKKA [N14D], the protein stability index is 3.92. The value for QLQSMPSRELASMCLDIVDLLKKA [N14C] was 2.16. On to QLQSMPSRELASMYLDIVDLLKKA [N14Y], for which the protein stability index came to 2.68. In the case of QLQSMPSRELASMRLDIVDLLKKA [N14R], the protein stability index was found to be 2.58. The same measure for QLQSMPSRELASMPLDIVDLLKKA [N14P]: 3.78; for QLQSMPSRELASMHLDIVDLLKKA [N14H]: 3.01.

With QLQSMPSMELASMNLDIVDLLKKA [R8M], the protein stability index is 3.2. The value for QLQSMPSHELASMNLDIVDLLKKA [R8H] was 3.94; that for QLQSMPSYELASMNLDIVDLLKKA [R8Y] was 2.66; that for QLQSMPSFELASMNLDIVDLLKKA [R8F] was 2.65. With QLQSMPSCELASMNLDIVDLLKKA [R8C], the protein stability index worked out at 3.85. As for QLQSMPSSELASMNLDIVDLLKKA [R8S], the protein stability index stood at 3.99. For the variant QLQSMPSIELASMNLDIVDLLKKA [R8I], the protein stability index amounted to 2.33. QLQSMPSEELASMNLDIVDLLKKA [R8E]: the protein stability index was determined as 4.28. Consider QLQSMPSKELASMNLDIVDLLKKA [R8K], for which the protein stability index amounted to 3.38. The value for QLQSMPSVELASMNLDIVDLLKKA [R8V] was 3.83. On to QLQSMPSGELASMNLDIVDLLKKA [R8G], for which the protein stability index was 3.71.

QLQSMPSWELASMNLDIVDLLKKA [R8W]: the protein stability index was 2.58. With QLQSMPSPELASMNLDIVDLLKKA [R8P], the protein stability index is 3.22. As for QLQSMPSLELASMNLDIVDLLKKA [R8L], the protein stability index was determined as 2.35. Regarding QLQSMPSQELASMNLDIVDLLKKA [R8Q], the protein stability index came to 3.85.

Consider QLQSMPSDELASMNLDIVDLLKKA [R8D], for which the protein stability index stood at 4.11. Take QLQSMPSAELASMNLDIVDLLKKA [R8A]: the protein stability index came to 4.22. The value for QLQSMPSREIASMNLDIVDLLKKA [L10I] was 2.95; that for QLQSMPSREWASMNLDIVDLLKKA [L10W] was 3.25; that for QLQSMPSRESASMNLDIVDLLKKA [L10S] was 4.49. For the variant QLQSMPSREGASMNLDIVDLLKKA [L10G], the protein stability index was 2.62. For the variant QLQSMPSREHASMNLDIVDLLKKA [L10H], the protein stability index turned out to be 3.24. As for QLQSMPSREMASMNLDIVDLLKKA [L10M], the protein stability index was found to be 3.58. For the variant QLQSMPSREKASMNLDIVDLLKKA [L10K], the protein stability index amounted to 3.02.

Regarding QLQSMPSRERASMNLDIVDLLKKA [L10R], the protein stability index is 3.71. The same measure for QLQSMPSREDASMNLDIVDLLKKA [L10D]: 4.09. On to QLQSMPSREVASMNLDIVDLLKKA [L10V], for which the protein stability index was determined as 3.6. QLQSMPSRECASMNLDIVDLLKKA [L10C]: the protein stability index was found to be 3.62.

As for QLQSMPSREPASMNLDIVDLLKKA [L10P], the protein stability index stood at 3.83. With QLQSMPSREEASMNLDIVDLLKKA [L10E], the protein stability index came to 3.97. The same measure for QLQSMPSREQASMNLDIVDLLKKA [L10Q]: 3.63; for QLQSMPSREFASMNLDIVDLLKKA [L10F]: 3.41. As for QLQSMPSREAASMNLDIVDLLKKA [L10A], the protein stability index is 4.18. For the variant QLQSMPSRENASMNLDIVDLLKKA [L10N], the protein stability index worked out at 3.33.

Consider QLQSMPSRETASMNLDIVDLLKKA [L10T], for which the protein stability index was determined as 4.32. With QLQSMPSREYASMNLDIVDLLKKA [L10Y], the protein stability index was 3.88.

As to QLQSMPSRTLASMNLDIVDLLKKA [E9T], the protein stability index worked out at 3.61. The same measure for QLQSMPSRGLASMNLDIVDLLKKA [E9G]: 2.9; for QLQSMPSRDLASMNLDIVDLLKKA [E9D]: 2.63; for QLQSMPSRNLASMNLDIVDLLKKA [E9N]: 3.4. In the case of QLQSMPSRILASMNLDIVDLLKKA [E9I], the protein stability index was found to be 2.44. Regarding QLQSMPSRQLASMNLDIVDLLKKA [E9Q], the protein stability index turned out to be 2.7.

For the variant QLQSMPSRALASMNLDIVDLLKKA [E9A], the protein stability index stood at 3.1. QLQSMPSRMLASMNLDIVDLLKKA [E9M]: the protein stability index was found to be 2.31. The value for QLQSMPSRCLASMNLDIVDLLKKA [E9C] was 2.7; that for QLQSMPSRRLASMNLDIVDLLKKA [E9R] was 2.15. Regarding QLQSMPSRSLASMNLDIVDLLKKA [E9S], the protein stability index was found to be 3.6.

With QLQSMPSRFLASMNLDIVDLLKKA [E9F], the protein stability index turned out to be 2.92. QLQSMPSRVLASMNLDIVDLLKKA [E9V]: the protein stability index is 3.04.

Take QLQSMPSRPLASMNLDIVDLLKKA [E9P]: the protein stability index is 2.78. Consider QLQSMPSRKLASMNLDIVDLLKKA [E9K], for which the protein stability index was 2.27.

With QLQSMPSRYLASMNLDIVDLLKKA [E9Y], the protein stability index was 3.14. With QLQSMPSRLLASMNLDIVDLLKKA [E9L], the protein stability index was found to be 2.7. Turning to QLQSMPSRHLASMNLDIVDLLKKA [E9H], the protein stability index was 2.99.

On to QLQSMPSRELASKNLDIVDLLKKA [M13K], for which the protein stability index was determined as 3.8. QLQSMPSRELASHNLDIVDLLKKA [M13H]: the protein stability index was determined as 3.59. Regarding QLQSMPSRELASVNLDIVDLLKKA [M13V], the protein stability index turned out to be 3.7. The value for QLQSMPSRELASRNLDIVDLLKKA [M13R] was 3.61; that for QLQSMPSRELASTNLDIVDLLKKA [M13T] was 3.38. As for QLQSMPSRELASNNLDIVDLLKKA [M13N], the protein stability index was found to be 4.17. The value for QLQSMPSRELASFNLDIVDLLKKA [M13F] was 2.97. For QLQSMPSRELASSNLDIVDLLKKA [M13S], the protein stability index was found to be 3.35.

For QLQSMPSRELASWNLDIVDLLKKA [M13W], the protein stability index came to 2.88.

Take QLQSMPSRELASLNLDIVDLLKKA [M13L]: the protein stability index stood at 3.52. The value for QLQSMPSRELASGNLDIVDLLKKA [M13G] was 3.76; that for QLQSMPSRELASINLDIVDLLKKA [M13I] was 2.39; that for QLQSMPSRELASDNLDIVDLLKKA [M13D] was 3.96. Consider QLQSMPSRELASANLDIVDLLKKA [M13A], for which the protein stability index is 4. The same measure for QLQSMPSRELASPNLDIVDLLKKA [M13P]: 4.01. Take QLQSMPSRELASENLDIVDLLKKA [M13E]: the protein stability index came to 4.19. With QLQSMPSRELASQNLDIVDLLKKA [M13Q], the protein stability index amounted to 3.79. QLQSMPSRELASCNLDIVDLLKKA [M13C]: the protein stability index came out at 3.74.

In the case of QLQSMPSRELASYNLDIVDLLKKA [M13Y], the protein stability index was 3.17. In the case of QLQSMPSRELASMNRDIVDLLKKA [L15R], the protein stability index turned out to be 3.58. Consider QLQSMPSRELASMNCDIVDLLKKA [L15C], for which the protein stability index worked out at 4.27.
